Data set [1] deals with T1, prothrombin (Homo sapiens, UniProt P00734 44-622). Put plainly: filter binding.
The target in another data set is porcine thrombin (pig, UniProt Q19AZ8;Q19AZ8 316-364;365-623). As to the kind of experiment: filter binding.
A further data set concerns the target beta-thrombin (UniProt P00734;P00734;P00734 328-363;364-425;437-622). Put plainly: filter binding.
For data set [2], the target named is T1, prothrombin. Put plainly: SPR.

Consider two molecules from paper PMC3636572.

B1: RNAR9D-14T (XNA)
RNA: GGCGGUCGAUCACACAGUUCAAACGUAAUAAGCCAAUGUACGAGGCAGACGACUCGCC
modifications: 2'-fluoro on all C and U; purines 2'-OH
On to B1, for which the Kd in the data set with prothrombin [1] is 10 nM; with porcine thrombin, 5 nM; with beta-thrombin it was 20 nM.

B2: biotin-RNAR9D-14T (XNA)
RNA: B1 RNA
modifications: 2'-fluoro on all C and U; purines 2'-OH
Take B2: the Kd with prothrombin [2] amounted to 1.4 nM.
